The data set deals with the molecule itself. Description: method not given; self-association.

B1: NoV P^--M2e protein (other)
chain: SRTKPFTVPILTVEEMSNSRFPIPLEKLYTGPSSAFVVQPQNGRCTTDGVLLGTTQLSAVNICTFRGDVTHIAGSHDYIMNLASQNWNNYDPTEEIPAPLGTPDFVGKIQGMLTQTTREDGSTRAHKATVSTGTVHFTPKLGSVQYTTSSLLTEVETPIRNEWGCRCNDSSDIDILQTGQNTKFTPVGVIQDGNNHQNEPQQWVLPNYSGRTGHNVHLAPAVAPTFPGEQLLFFRSTMPGCSGYPNMNLDCLLPQEWVQHFYQEAAPAQSDVALLRFVNPDTGRVLFECKLHKSGYVTVAHTGPHDLVIPPNGYFRFDSWVNQFYTLAPMGNGAGR
notes: also called NoV P^--M2e dimer
For the protein B1, the binding result is reported as “binds”.
